Laboratory results published in publication PMC7875971, “Cavin1 intrinsically disordered domains are essential for fuzzy electrostatic interactions and caveola formation” (Nature Communications, 2021).

Target: the molecule itself
Assay: fluorescence correlation spectroscopy (FCS); purified ubiquitin- and GFP-tagged proteins at 0.1 µM in 20 mM HepesKOH pH 7.6 with 150 mM NaCl, compared with 500 mM NaCl; diffusivity as read-out of self-association

B1: His-ubiquitin- and GFP-tagged full-length Cavin1 (recombinant GFP-Cavin1) (natural protein, mouse, UniProt O54724 1-392, looked up)
chain: MEDVTLHIVERPYSGFPDASSEGPEPTQGEARATEEPSGTGSDELIKSDQVNGVLVLSLLDKIIGAVDQIQLTQAQLEERQAEMEGAVQSIQGELSKLGKAHATTSNTVSKLLEKVRKVSVNVKTVRGSLERQAGQIKKLEVNEAELLRRRNFKVMIYQDEVKLPAKLSVSKSLKESEALPEKEGDELGEGERPEDDTAAIELSSDEAVEVEEVIEESRAERIKRSGLRRVDDFKKAFSKEKMEKTKVRTRENLEKTRLKTKENLEKTRHTLEKRMNKLGTRLVPVERREKLKTSRDKLRKSFTPDHVVYARSKTAVYKVPPFTFHVKKIREGEVEVLKATEMVEVGPEDDEVGAERGEATDLLRGSSPDVHTLLEITEESDAVLVDKSDSD
notes: Cavin1, mouse, residues 1-392; also called purified recombinant GFP-Cavin1; source: E. coli Rosetta 2 (DE3), purified (TALON, Superose 6 SEC); not shown: His6-ubiquitin, N-terminal, kept; GFP, C-terminal, kept
  binding result: binds
